# In the DeepSol protein solubility set:
# Experiment: soluble on expression in E. coli; label from the status in PepcDB or PDB records
row,Sequence,soluble on expression in E. coli
1,MGSDKIHHHHHHMVERALALSELNQSEPVELVSNSKPSYPDLGEAVSVEVLVGWGKEAIAIIRDNYPDVLCNSDWECDVETTRLVNTQGLDCYYSDTTLSCYMSAEWVRGDDFLSVSDGQTQRDYLDPEKLAYQILQRLVWAKENVPPPNGRVPVLFTSKAADMLWGTAQAALNGKRVLEAASPWAERVGKQVIAPSLTLYQDPQAGPYSCPFDDEGTPTKSLVFIEKGILQNYYCDRTTGRQLGNSTTGNGFRPGLGSYPTPGLFNFLIKPGSKSLKDLIQNMDDGLIVDQMLGGSGGISGDFSINIELGYRVQKGQVIGRVKDTMVAGNVYTALKQVELGSDADWNGSCYTPSLIVEGLSTTGRNN,not soluble
2,MGSDKIHHHHHHMVGIILASHGEFAKGILQSGAMIFGDQENVQAVTLMPSEGPDDVKAKMKDAIASFDNQDEVLFLVDLWGGTPFNQANSLFEEHKDKWAIVAGMNLPMVIEAYGARLSMESAHEIAASIISTAKEGVKVKPEELEPEDAGKASQGSAKQSNTGAPGSFEYVLARIDSRLLHGQVATAWTKAMQPTRIIVVSDAVAKDELRKKLIQQAAPPGVKAHVVPINHMIKLAKDDQHFGGQRAMLLFENPEDVLRVVEGGVPLKTINVGSMAHSTGKVQPNKVLAFNQEDIDTFNKLKQSGLTFDVRKVPNDSKGNMDEIIKKAQDELNKQK,not soluble
3,MGSDKIHHHHHHMVGNYRGMGRFARQLVEPVGASVLGLAPSGVHADEWPCVSQGHGFFPWWEQVELPRLCREQRLDYLLCPYNTGPLRSTGNTRVVAVIHDLIYMEPWHVLPPARSVYQTVGRVYRRHVVPRLVRRADVVLTVSRFTQRELVKKFELREGDVRVVPCTISDDWFEPPVSRTARQPYLFTVAGEVPSKNVGRLLQAFAIARPALGDDARLRIAGIKAEHHAHFLGLADSLGLTNAVELLGYVSREELREQYRQARAFVFASLFEGFGIPLLEAMASGTPVACSNTTSMPEIAGNCALQFDPRSVEDMAEQIRAIWDDSARFEVALGDGVNRARTYSESAVRPSIEDFWAGLA,not soluble
4,MGSDKIHHHHHHMVKLKPKGPFTRIPRATTIFGAISNAIRLLYGRKEVEKFIAGFINDDAKITSAFPYDGETYFLPKPLSVDLVVKTLFETKKEDVKKVKKKDYIPLESFEKALRLEEFEVKELPYKVIELPKVSLDRVSNDSSLYFWDLVTFKENSGLYFLYDGSNKLFEKYIVPAMRLLEDQGIGGKGTWGYGLFEVEIEELEIEEPRENSYVTLSPFVPENETSLILWKIVKLGGWSQGKRRPKIPMVVEGSLSREDRGKMITLDLSLSYPVYVYARSFLVRASLPEEAVGHV,not soluble
5,MGSDKIHHHHHHMVKNYVLDTNVLIHDPDSIFSFEDNNVIIPLPVLEELDKLKREHGSVGKNAREVIRHLDELRKKGNLRKGIPLENGGILRVMVLEREVENVPRFLHERYVDNIILAYVIELMNREKIPTILVSKDINLRVKADSLGIPAQDYLTDRSELETMPKGYVEIDDEELKKQLKVKVTVEKKLDLLDNFYIDLGGVYGKYRKGKVLRVEPFETMGISPRNREQIFSMDALLDDEIPLVFLVGIAGTGKTLLALACGLYKVLVEKRYKKLIVTRPTVPMGRDIGYLPGELEKKMKPWLQPIMDNLELISSLSGLKIKELEKQEILEVEAISFIRGRSIPKQFIIIDEAQNLTPHEVKTILTRVGEDTKIVLVGDPYQIDTPYLDKDTNGLVYAALKLLESDLSAVIKLEKGERSRLATIAAELL,not soluble
6,MGSDKIHHHHHHMVLIRLRPCSAVEKDLIHACSPSASALVSKNEKAMKRFFLTTAILLSSVLASYADSLPSAVRDTVIRAGEKTIMIKDGEDDFEVIIQESMPSGDTIRNEKIFRGVYRNGRSIEQRFRNTLINRPNRDKEMPVWGTYGFGSFEWGELKVDDSHSDIGRSHSYRVSIQIFGDIYRLNKYLVLTYALGWDADIYRITDSKTLKNIDGVTTVVDVPGRAECTLTAAYLKAMPALAFNGVRSNLTVYIAPVLRAKVYSAATTDGPDGRLEKLRRVKLNTFSVEARAGINYRNAGIFFTYSLTPLFRSGKGPKLHPYTIGLSLSL,not soluble
7,MGSDKIHHHHHHMVMIQLCEWQQQGQFLSINDQQIFTRQAGDRKAPALLLIHGYPSASWDWEGMWHELTQHYFVVTLDMLGFGFSDKPKNVDYLISQQADIYEAVLQQFGVSHYHILAHDYGDTVAQELLARQLDGNSTLSINSVCFLNGGLFPETHKPLLIQTLLLSPLGPLVSKLINKQKFAVNLQRIFGPSTPPTPQVIDALWQLLNHNNGLAVMHKLINYITQRKQHRERWVGAIINSTIPIKLIAGVKDPISGQHMIDHYRKLIPHADVTELPTLGHYPQVEDANAIIAAYLQFRLNRT,not soluble
8,MGSDKIHHHHHHMVRFISNTLSQTLNEPFQQSHKSCKHLYILEILSQVVIVSDQKQVPLQPYDIILAQSFNHLQIDSLDRNPILLRLYSLDFDLPSPLNQYTVGDNPLIHDLMNDHTSEDAYILFTNLSDLICHAYLDALEKLENLRDNNDEQVYIDFQRQKLAGLLFTELLRQHDAKVSKFASRFPSVNVKYASKDSQSGAIMKYVSDNVHHISLKEAAAHFFYQANYFSRLCHELFGISFNQLKTTIRLEIAKEQLRLTTKSVEEISQELGYKAVSNFHRNFKSQTGMTPNDYRQDKQ,not soluble
9,MGSDKIHHHHHHMVRLSEAEVQNPKLGEYQCLADLNLFDSPECTRLATQSASGRHLWVTSNHQNLAVEVYLCEDDYPGWLSLSDFDSLQPATVPYQAATFSESEIKKLLAEVIAFTQKAMQQSNYYLWGGTVGPNYDCSGLMQAAFASVGIWLPRDAYQQEGFTQPITIAELVAGDLVFFGTSQKATHVGLYLADGYYIHSSGKDQGRDGIGIDILSEQGDAVSLSYYQQLRGAGRVFKSYEPQRR,soluble
10,MGSDKIHHHHHHMVSFVHSSDLHLGKSFGTFPEDVRVRLQQARLESLTTLADIARTNGARHVLLAGDTFDKMTPAPKVIRGALNAMREAADVTWWVLPGNHDHVNATELWRTFTSDAPANVHALLRPEPVMLTDGVALLPAPPTERHPGRDLTDWFDDAATGDALRIGLAHGSIRGFSAEDGGASVLSFNRARDAGLAYLGLGDWHGQLQVSENTWYSGAPEADSFKHAMDPSALLVEVDGARVTVTPHPTSRLIWRASEVDLIGDEADLPLPPQDRARTLLKLTLTGRARPAVRRDLEAAFDHAAPDFLWAEAEFDGLDLVHETSDLDQIDRQGALRAAAEALVREADDQALSPEARATADAALSLLFTYAAEA,not soluble
11,MGSDKIHHHHHHMVSHKKNDRPRPLWILKIHKRLSLFEFKRYATGIGKDDGQDISWVLKGNAKNNVYQVTVETMENCETDECKKVIWVPDELAESTGTMFEDFKEDQPQESVSSISNNEANWGSSVNELDENYEKMQKEETFDPYDSDSDTSEDSDFDEDFEDSDKTMCSGQS,not soluble
12,MGSDKIHHHHHHMVSKMTNQRVLTVPGGINFRELGGYSTKDGRKIKWHKVIRTGGLDQLTPTGQALLDDYGVRYDIDFRSPQEVLDAPDRIPANAKYVYAPVFNVDETRNSDGTDKMTANLEKHPDSGFKHMLKVYQMVADEQHAKDEYRRFFDNLLANDQPDSTLLFHCTAGKDRTGMGAVYLLTALGVDFETIKQDYLLTNQASIGRINGAMAEARAQGASDATVESIRALWSVDADYLDAAMTEIKRQSGNLNHYLHTELKLTNNEINDLQRIYLE,not soluble
13,MGSDKIHHHHHHMVTETYINKLLAPIRRRITGMLTRAVVSGIVEDLQRQNLQVKMHADESADNIERFQNYGMSSYPPEGAEAIVAALGGALSGLVAIAVEDKKFRPKGESGDVFLYHLEGHKIRLTKDGKIILTAQDVIFEIENSFTISTTDVIFNASGSFTIISPETLIDGPLHVTGDISTDLGITAVNGITSNSVITGSDLSANNISYLGHIHKDAENRPTTAPE,not soluble
14,MGSDKIHHHHHHMVTHWLPDLSTAEGPLYIRIADRAEADIKTGRLSSGAKLPPQRDLAFDLKVTIGTITRAYALLRERGLVTGEVGRGTYVQSSLAESETDIHRDPVTLTYGGTRTLSPPPGKLRFDTTAAIDVGQADIIGRLMTDIARDQPDEIASYTRTLLPDWLEAGRRWLSNGDWSPEAANIVPQMGVHAGVNAVIAAISGTGDRIVCEHLTYSQIARSASLMGRQIALVDSDHDGIMPEDFERVCAREHPKAAFIMSSGQNPTLSCLPLSRRLEIIDIARRYNVWLIEDYIYGALVDDGIPLLAQLAPDRTFLLNSLSKSVAAGVRGGWVACPDHMSQRVRVTQKMVCGGLPFLLAELSARLVLSGAADDIRGRVLEELSAREQIVRQLFEGYEFRSHPRLPYFWLKLPEPWLSGTFKQAALDQGVLIDDEDEFKPARSSRVFHHIRAGFSEGRDRSIAEGGLITLRRILDQIPVGSNAVM,not soluble
15,MGSDKIHHHHHHMVTQMLEGKKVAILVETEFIPEEIAAYRQHFEELGATVHFMSRLWGNETVQFVSDVDEIGKSLQYLDVNIDFQSVDVNEYAAVIMAANYTSVRLRYFQPPPGQQISPEQTRTAPAIQFFAQAMANHKIIKGLLCHGLWLLTPMPELLRGRKVICHEVVLADIANAGAVYVPPPVNSQPNDPGNIVVDRDLVTGRAGHDVYAFIDAIAHQIASQEQRCLETQRR,not soluble
16,MGSDKIHHHHHHMVVLAPHIEWLMETVHIISGLNDGGAEAVLYRLCSSDKAAEHYVISLMDEGKYGALLREAGVQVSCLSMPRGRVTLGGLWRLWRLLRQIRPQAVQTWMYHADLVGGLIARLAGVKQVFWGIHHTTLHAGQSRRSTIWVARLCARISSCLPSAIICCAQKALEAHRELGYAAEKLRVIPNGYDLVRFRVDEDARVRLRTEWNTGSRWLIGMVGRFDPLKDHKNLLDALAIVKYRGVDFCCVLAGRGLDQNNAQLMAWLTELDLAGEVKLLGQRMDIPDVMNALDVHVLSSSSEAFPNVVAEAMACGTSVVTTNVGDAALIVGETGWVVPARNPGMLADALLQAYVAMHDEAAWQVRCTAVRQRVEDHFSLERMVENYHLVWQNKL,not soluble
17,MGSDKIHHHHHHMVVRGRLKGVEAEFIDFHVHMPYWIRDPVKSCRRLLLEELTAGAISAVVIGVDASLETIKSRVTPREITEAAMEDFDYLAFQQVGYIGRMIMEPEKFLDDFLGDFHKHRRGPEDLRACRSVEPRFFYTIVSYKPGMEEEVAQIVRSDSSILGVKIFPTFHFTRPDSQRLYPVYKAVEEAGGLVVVHTGCDPGPWELTRFCREARPSYVARAAKRFENLVFVIAHLGAYSALKPGIYFEETLKALSLENVYADTSAADPFFAAMAVKEGYADKILFGSDYPYVSGYNVAMAVKDILSLDIDNNDKEAVLRYNAEKLLNSLPRGRQKPG,not soluble
18,MGSDKIHHHHHHMWTEIDTQISRVTGERFQSQQRRSVSGGCINQGYAVADGTLTYFVKLNQASQVAMFEAEALGLEQMLTTNSIRVPKPICWGIAGNSGYIVLEWLEMGSGNTNSWEEMGRNLAKMHKATSQKGYGWDMNNTIGSTPQINTWTEDWTEFYSKHRLGYQFQLARRRGGSFPKQDELLGALPELLADHEVQPSLVHGDLWGGNAGCTVSGEPVIFDPATYFGDREVDIAMTELFGGFPAAFYKGYNQVFPLDAGYEKRKTLYNLYHILNHFNLFGGGYASQANRMIEQILR,not soluble
19,MGSDKIHHHHHHMWTSKQQQALDHLAATPSLLVVSDFDGTLAGFSHDAMQVPVNHVAMAALQQLTSLPSTRVALLSGRDVQGLIQVSGAAAPMIVAGSHGAESTEGGLVLNEDQQAALSAVTAALEEIATSVPGAFVEHKPYHRVLHVIRVADQQRARAALDRALALEIPGAKIAEGKWIAEASVVDFTKGTWIKAAQEQYRPSVTLFLGDDTTDENGFAVLGCNDVGIKVGAGDTCATVRLESIDRVGQFLSSLADARSAAQQ,not soluble
